Paper PMC11246235 (Cell, 2024)
Read-outs that look alike come from different tables or passages of the source.

T1: Ctc1 (His6-MBP-Ctc1) (human, UniProt Q2NKJ3 1-1217)
T1 sequence (looked up): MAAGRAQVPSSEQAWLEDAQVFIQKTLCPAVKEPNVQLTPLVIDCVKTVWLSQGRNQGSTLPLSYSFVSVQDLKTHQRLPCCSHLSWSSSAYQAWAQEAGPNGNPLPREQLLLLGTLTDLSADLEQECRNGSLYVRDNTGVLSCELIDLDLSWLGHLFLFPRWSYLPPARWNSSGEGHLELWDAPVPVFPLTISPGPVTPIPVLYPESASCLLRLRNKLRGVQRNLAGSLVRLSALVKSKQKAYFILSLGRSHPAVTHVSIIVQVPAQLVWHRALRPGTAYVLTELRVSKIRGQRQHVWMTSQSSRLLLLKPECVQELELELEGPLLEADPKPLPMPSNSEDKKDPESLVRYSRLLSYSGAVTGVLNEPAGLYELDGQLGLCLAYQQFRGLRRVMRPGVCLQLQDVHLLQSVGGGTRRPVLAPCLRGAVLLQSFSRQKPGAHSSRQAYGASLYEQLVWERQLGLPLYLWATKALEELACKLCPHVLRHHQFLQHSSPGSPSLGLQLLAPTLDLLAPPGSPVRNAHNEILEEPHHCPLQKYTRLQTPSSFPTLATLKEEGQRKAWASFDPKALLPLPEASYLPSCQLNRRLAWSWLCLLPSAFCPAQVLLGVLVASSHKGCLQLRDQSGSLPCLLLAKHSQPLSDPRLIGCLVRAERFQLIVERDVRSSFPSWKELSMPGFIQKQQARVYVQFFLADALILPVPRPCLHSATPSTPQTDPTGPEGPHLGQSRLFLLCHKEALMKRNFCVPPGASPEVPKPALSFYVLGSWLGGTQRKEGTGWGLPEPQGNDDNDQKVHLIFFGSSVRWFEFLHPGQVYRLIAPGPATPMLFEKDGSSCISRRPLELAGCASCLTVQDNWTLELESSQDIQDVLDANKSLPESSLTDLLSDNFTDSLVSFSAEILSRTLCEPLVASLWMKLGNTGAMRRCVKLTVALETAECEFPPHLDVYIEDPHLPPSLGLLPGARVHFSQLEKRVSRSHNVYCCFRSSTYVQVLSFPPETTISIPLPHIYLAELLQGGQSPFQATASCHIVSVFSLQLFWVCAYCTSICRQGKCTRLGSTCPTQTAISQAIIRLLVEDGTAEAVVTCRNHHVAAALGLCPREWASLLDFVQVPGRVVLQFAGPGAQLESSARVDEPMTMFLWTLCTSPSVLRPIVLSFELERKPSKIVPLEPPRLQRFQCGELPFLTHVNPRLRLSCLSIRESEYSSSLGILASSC

B1: POT1(ESDL) (natural protein, human, UniProt Q9NUX5 1-634, looked up)
chain: MSLVPATNYIYTPLNQLKGGTIVNVYGVVKFFKPPYLSKGTDYCSVVTIVDQTNVKLTCLLFSGNYEALPIIYKNGDIVRFHRLKIQVYKKETQGITSSGFASLTFEGTLGAPIIPRTSSKYFNFTTEDHKMVEALRVWASTHMSPSWTLLKLCDVQPMQYFDLTCQLLGKAEVDGASFLLKVWDGTRTPFPSWRVLIQDLVLEGDLSHIHRLQNLTIDILVYDNHVHVARSLKVGSFLRIYSLHTKLQSMNSENQTMLSLEFHLHGGTSYGRGIRVLPESNSDVDQLKKDLESANLTANQHSDVICQSEPDDSFPSSGSESDLVSLYEVERCQQLSATILTDHQYLERTPLCAILKQKAPQQYRIRAKLRSYKPRRLFQSVKLHCPKCHLLQEVPHEGDLDIIFQDGATKTPDVKLQNTSLYDSKIWTTKNQKGRKVAVHFVKNNGILPLSNECLLLIEGGTLSEICKLSNKFNSVIPVRSGHEDLELLDLSAPFLIQGTIHHYGCKQCSSLRSIQNLNSLVDKTSWIPSSVAEALGIVPLQYVFVMTFTLDDGTGVLEAYLMDSDKFFQIPASEVLMDDDLQKSVDMIMDMFCPPGIKIDAYPWLECFIKSYNVTNGTDNQICYQIFDTTVAEDVI
modifications: phosphorylated in insect cells (sites not determined)
B2: Stn1 (natural protein, human, UniProt Q9H668 1-368, looked up)
chain: MQPGSSRCEEETPSLLWGLDPVFLAFAKLYIRDILDMKESRQVPGVFLYNGHPIKQVDVLGTVIGVRERDAFYSYGVDDSTGVINCICWKKLNTESVSAAPSAARELSLTSQLKKLQETIEQKTKIEIGDTIRVRGSIRTYREEREIHATTYYKVDDPVWNIQIARMLELPTIYRKVYDQPFHSSALEKEEALSNPGALDLPSLTSLLSEKAKEFLMENRVQSFYQQELEMVESLLSLANQPVIHSASSDQVNFKKDTTSKAIHSIFKNAIQLLQEKGLVFQKDDGFDNLYYVTREDKDLHRKIHRIIQQDCQKPNHMEKGCHFLHILACARLSIRPGLSEAVLQQVLELLEDQSDIVSTMEHYYTAF
B3: Ten1 (natural protein, human, UniProt Q86WV5 1-123, looked up)
chain: MMLPKPGTYYLPWEVSAGQVPDGSTLRTFGRLCLYDMIQSRVTLMAQHGSDQHQVLVCTKLVEPFHAQVGSLYIVLGELQHQQDRGSVVKARVLTCVEGMNLPLLEQAIREQRLYKQERGGSQ

How the values were obtained:
Test in all cases: cryo-EM structure
[1] = molecular target: T1, Ctc1 (His6-MBP-Ctc1)
[2] = molecular target: T1, Ctc1 (His6-MBP-Ctc1); remark: listed apart in the source
[3] = molecular target: B2

B1
binding result [1]: binds

B2
binding result [2]: binds

B3
binding result [3]: binds
